Laboratory results: publication PMC10761769, “Allosteric control of dynamin-related protein 1 through a disordered C-terminal Short Linear Motif” (Nature Communications, 2024)
“And” between values parts separate entries of the source, which are not always exact repeats. Equal values may be shown once.

B1: human Drp1 isoform 3 ΔCT6 (last six residues, the whole CT-SLiM, removed) (enzyme, UniProt O00429-4 1-693, looked up)
chain: MEALIPVINKLQDVFNTVGADIIQLPQIVVVGTQSSGKSSVLESLVGRDLLPRGTGIVTRRPLILQLVHVSQEDKRKTTGEENGVEAEEWGKFLHTKNKLYTDFDEIRQEIENETERISGNNKGVSPEPIHLKIFSPNVVNLTLVDLPGMTKVPVGDQPKDIELQIRELILRFISNPNSIILAVTAANTDMATSEALKISREVDPDGRRTLAVITKLDLMDAGTDAMDVLMGRVIPVKLGIIGVVNRSQLDINNKKSVTDSIRDEYAFLQKKYPSLANRNGTKYLARTLNRLLMHHIRDCLPELKTRINVLAAQYQSLLNSYGEPVDDKSATLLQLITKFATEYCNTIEGTAKYIETSELCGGARICYIFHETFGRTLESVDPLGGLNTIDILTAIRNATGPRPALFVPEVSFELLVKRQIKRLEEPSLRCVELVHEEMQRIIQHCSNYSTQELLRFPKLHDAIVEVVTCLLRKRLPVTNEMVHNLVAIELAYINTKHPDFADACGLMNNNIEEQRRNRLARELPSAVSRDKVASGGGGVGDGVQEPTTGNWRGMLKTSKAEELLAEEKSKPIPIMPASPQKGHAVNLLDVPVPVARKLSAREQRDCEVIERLIKSYFLIVRKNIQDSVPKAVMHFLVNHVKDTLQSELVGQLYKSSLLDDLLTESEDMAQRRKEAADMLKALQGASQIIAEI
notes: Drp1, human, isoform 3, without the last six residues (R694-W699) of the 699; numbers count on: isoform 3 (699 residues); Limits worked out from 'the last six residues removed' and W699 as the last residue; also called ΔCT6 Drp1; ΔCT6 variant
B2: human dynamin-related protein 1 (Drp1) isoform 3, wild type, N-terminal His6 tag (enzyme, UniProt O00429-4 1-699, looked up)
chain: MEALIPVINKLQDVFNTVGADIIQLPQIVVVGTQSSGKSSVLESLVGRDLLPRGTGIVTRRPLILQLVHVSQEDKRKTTGEENGVEAEEWGKFLHTKNKLYTDFDEIRQEIENETERISGNNKGVSPEPIHLKIFSPNVVNLTLVDLPGMTKVPVGDQPKDIELQIRELILRFISNPNSIILAVTAANTDMATSEALKISREVDPDGRRTLAVITKLDLMDAGTDAMDVLMGRVIPVKLGIIGVVNRSQLDINNKKSVTDSIRDEYAFLQKKYPSLANRNGTKYLARTLNRLLMHHIRDCLPELKTRINVLAAQYQSLLNSYGEPVDDKSATLLQLITKFATEYCNTIEGTAKYIETSELCGGARICYIFHETFGRTLESVDPLGGLNTIDILTAIRNATGPRPALFVPEVSFELLVKRQIKRLEEPSLRCVELVHEEMQRIIQHCSNYSTQELLRFPKLHDAIVEVVTCLLRKRLPVTNEMVHNLVAIELAYINTKHPDFADACGLMNNNIEEQRRNRLARELPSAVSRDKVASGGGGVGDGVQEPTTGNWRGMLKTSKAEELLAEEKSKPIPIMPASPQKGHAVNLLDVPVPVARKLSAREQRDCEVIERLIKSYFLIVRKNIQDSVPKAVMHFLVNHVKDTLQSELVGQLYKSSLLDDLLTESEDMAQRRKEAADMLKALQGASQIIAEIRETHLW
notes: dynamin-related protein 1 (Drp1), human, isoform 3, 699 residues, ends in the CT-SLiM R694-W699 (RETHLW); numbers count on: isoform 3 (699 residues); also called WT Drp1; WT
B3: human Drp1 isoform 3 ΔCT4 (last four residues of the CT-SLiM removed) (enzyme, UniProt O00429-4 1-695, looked up)
chain: MEALIPVINKLQDVFNTVGADIIQLPQIVVVGTQSSGKSSVLESLVGRDLLPRGTGIVTRRPLILQLVHVSQEDKRKTTGEENGVEAEEWGKFLHTKNKLYTDFDEIRQEIENETERISGNNKGVSPEPIHLKIFSPNVVNLTLVDLPGMTKVPVGDQPKDIELQIRELILRFISNPNSIILAVTAANTDMATSEALKISREVDPDGRRTLAVITKLDLMDAGTDAMDVLMGRVIPVKLGIIGVVNRSQLDINNKKSVTDSIRDEYAFLQKKYPSLANRNGTKYLARTLNRLLMHHIRDCLPELKTRINVLAAQYQSLLNSYGEPVDDKSATLLQLITKFATEYCNTIEGTAKYIETSELCGGARICYIFHETFGRTLESVDPLGGLNTIDILTAIRNATGPRPALFVPEVSFELLVKRQIKRLEEPSLRCVELVHEEMQRIIQHCSNYSTQELLRFPKLHDAIVEVVTCLLRKRLPVTNEMVHNLVAIELAYINTKHPDFADACGLMNNNIEEQRRNRLARELPSAVSRDKVASGGGGVGDGVQEPTTGNWRGMLKTSKAEELLAEEKSKPIPIMPASPQKGHAVNLLDVPVPVARKLSAREQRDCEVIERLIKSYFLIVRKNIQDSVPKAVMHFLVNHVKDTLQSELVGQLYKSSLLDDLLTESEDMAQRRKEAADMLKALQGASQIIAEIRE
notes: Drp1, human, isoform 3, without the last four residues (T696-W699) of the 699; numbers count on: isoform 3 (699 residues); Limits worked out from 'the last four residues removed' and W699 as the last residue; also called ΔCT4 Drp1; ΔCT4 variant
B4: mouse GIPC-1 (GAIP interacting protein, C-terminus 1), full length (natural protein, UniProt Q9Z0G0 1-333, looked up)
chain: MPLGLGRRKKAPPLVENEEAEPSRSGLGVGEPGPLGGSAAGESQMGLPPPPAALRPRLVFHTQLAHGSPTGRIEGFTNVKELYGKIAEAFRLPAAEVMFCTLNTHKVDMDKLLGGQIGLEDFIFAHVKGQRKEVEVFKSEEALGLTITDNGAGYAFIKRIKEGSVIDHIQLISVGDMIEAINGQSLLGCRHYEVARLLKELPRGRTFTLKLTEPRKAFDMISQRSAGGHPGSGPQLGTGRGTLRLRSRGPATVEDLPSAFEEKAIEKVDDLLESYMGIRDTELAATMVELGKDKRNPDELAEALDERLGDFAFPDEFVFDVWGAIGDAKVGRY
notes: GIPC-1, mouse, full length; also called full-length GIPC-1; source: subcloned in pGEX-6P1, expressed and purified using standard protocols; GST removed by HRV3C; not shown: GST, N-terminal, cleaved

Assays:
R403A Drp1 = R403A Drp1 (UniProt O00429); experiment: not stated; R403A Drp1 in solution (Supplementary Fig. 4a); the same protein was used as a dimer for SEC-SAXS at ~34 uM in buffer A with 1 mM DTT
[1] = molecular target: the molecule itself; experiment: negative-stain EM; 2D class averages of single particles, Drp1 at 2 uM, apo state
[2] = molecular target: the molecule itself; experiment: SEC-MALS; Drp1 in the nucleotide-free apo state, Superose 6 10/300 GL; injected at 5 uM, ~0.5 uM at peak detection; other injection concentrations in the supplement
[3] = molecular target: human dynamin-related protein 1 (Drp1) isoform 3, wild type, N-terminal His6 tag (human) (UniProt O00429)
[4] = molecular target: the molecule itself; experiment: SEC-MALS; full-length GIPC-1, unliganded, 10 uM at injection, Superdex 200 10/300 GL

Molecule | stoichiometry N [1] | stoichiometry N [2] | other results
R403A Drp1 (from UniProt O00429-4 1-699) (enzyme) | – | – | stoichiometry N (R403A Drp1): 2
B1 | 2 | 4 | –
B2 | – | 2 and 4 | –
B3 | 2 | 4 | –
B4 | – | – | fission of free-standing lipid nanotubes by WT Drp1 with GIPC-1 at 1:1 (0.5 uM each), 1 mM GTP [3]: > 30%; stoichiometry N [4]: 2
